{
  "source": "patent US9206239B2",
  "about": "“Treatment of cancers with immunostimulatory HIV Tat derivative polypeptides” (PIN Pharma, Inc., priority 2009, dated 2015)",
  "molecules": {"B1": {"name": "Nani-P2: HIV Tat derivative polypeptide, SEQ ID NO: 3; derivatized Tat amino terminus from an African Green Monkey variant SIV (protein)", "chain": "MDPKGEEDQDVSHQDLIKQYRKPRTACNNCYCKKCCFHCYACFLRKGLGITYHAFRTRRKKIASADRIPVPQQSISIRGRDSQTTQESQKKVEEQAKANLRISRKNLGDETRGPVGAGN", "modifications": "Nani-P2 modified HIV Tat sequence", "notes": "derivatized Tat amino terminus from an African Green Monkey variant SIV"}},
  "key": {"Human monocytes": {"tested_on": "Human monocytes", "experiment": "CD86 expression on human monocytes cultured with Tat derivative", "format": "cell-based", "conditions": "human monocytes cultured 24-28 hours; compared with ISS (TLR) or LPS", "procedure": "Human monocytes were cultured for 24-28 hours with a Tat derivative (Nani-P2), an immunostimulatory sequence (ISS) of a toll-like receptor (TLR) (FIG. 1) or lipopolysaccharide (LPS) (FIG. 2) and the cells were then washed and stained with fluorescent-labeled CD86."}, "[1]": {"experiment": "Toxicity observation in treated mice", "format": "in vivo", "conditions": "SC or IV administration of 40 ng, multiple trials and dosing schedules"}, "4T1 breast tumor cells [2]": {"tested_on": "4T1 breast tumor cells", "experiment": "4T1 breast tumor growth in BALB/c mice", "format": "in vivo"}, "4T1 cells": {"tested_on": "4T1 cells", "experiment": "Repeated dosing of Nani-P2 alternating with cyclophosphamide in 4T1 tumor-bearing mice", "format": "in vivo, BALB/c mice", "procedure": "Four groups of 10 BALB/c mice were implanted with 1×10^4 4T1 cells SC into the mammary fat pad. Treatment was initiated when tumor diameters reached 4-5 mm, on day 10. Control mice were injected IV with PBS at 3 days intervals, while alternating treatment mice received 3 doses of drug every 3 days in rotating 10 day cycles. Tumor burden (tumor size mm^3) was calculated using a standard formula. CY: (cyclophosphamide alone) mice were injected IP weekly with 80 mg/kg per mouse beginning on day 10. Cy/Nani-P2: (cyclophosphamide first followed by Nani-P2) mice were first injected IP with cyclophosphamide (80 mg/kg) at 3 days intervals for three doses starting at day 10 and then injected IV with Nani-P2 (40 ng) at 3 days intervals for three doses in rotation. The cycle of 3 doses of CY followed by 3 doses of Nani-P2 was repeated until day 50. Nani-P2/CY: (Nani-P2 first followed by cyclophosphamide): mice were first injected IV with Nani-P2 (40 ng) at 3 day intervals for 3 doses starting on day 10 and then injected i.p. with cyclophosphamide at 3 day intervals in rotation. The cycle of 3 doses of Nani-P2 followed by 3 doses of CY was repeated until day 50."}, "4T1 breast tumor cells [3]": {"tested_on": "4T1 breast tumor cells", "experiment": "4T1 breast tumor growth in BALB/c mice", "format": "in vivo", "description": "Female BALB/c mice 6 to 8 weeks old were purchased from the Jackson Laboratory (Bar Harbor, […].). Mice were acclimated for at least 1 week before use. Mice were kept in pathogen-free conditions at the Animal Maintenance Facility of the Columbia University of Medical Center and all experiments were approved by the Institutional Animal Care and Use Committee of Columbia University of Medical Center.\n4T1 cells, a 6-thioguanine-resistant cell line derived from a BALB/c spontaneous mammary carcinoma was obtained from ATCC; TS/A, a murine adenocarcinoma cell line was provided by Dr. Sandra Demaria (Demaria S. et al. Clin Cancer Res. 11:728-34, 2005); and SM1, the BALB/C-derived mammary carcinoma was kindly was provided by Dr. James Allison, University of California, Berkeley. All tumor cell lines were cultured in DMEM, supplemented with 2 mM L-glutamine, 10 mM HEPES, 150 units/ml penicillin/streptomycin, 10% heat-inactivated FCS (Invitrogen), 50 μM 2-mercaptoethanol (Sigma), and 50 mg/L gentamicin (Lanza).\nBALB/c were injected (SC) with 1×10^4 4T1, 1×10^5 TS/A or 2×10^5 SM1 cells, respectively, in the left mammary pad on day 0. Immunotherapy was performed by directly injecting a Tat derivative into the right flank at 0, 7, 12, and 17 days after establishment of tumors. The control group received PBS injection. […] Tumor burden (tumor volume) was measured and recorded three times weekly. Animals were sacrificed when tumors reached a volume of 15 mm in diameter and the tumors harvested and weighed.\nThe therapeutic effect of systemic administration of synthetic, Tat-derived compositions in murine models of breast cancer was investigated. To compare the relative protection conferred by a small panel of different derivatives against primary breast tumor growth, female BALB/c mice were injected with 1×10^4 4T1 breast tumor cells SC into the mammary pad, and then treated with 400 ng partially-purified Tat derivatives at day 0, 7, 14 and 21 (SC injection in PBS) into the draining axillary lymph nodes.", "remark": "listed apart in the source"}, "[4]": {"conditions": "day 50, Nani-P2 alternating with cyclophosphamide"}},
  "note": "“Also recorded” adds a separate entry of the source.",
  "data": [
    {"molecule": "B1", "values": [
      {"measurement": "expression of CD86", "setting": "Human monocytes", "result": "higher expression of CD86 than either ISS (TLR) or LPS"},
      {"measurement": "toxicity", "setting": "[1]", "result": "no toxicity was observed"},
      {"measurement": "difference in mean tumor volume vs control group", "setting": "4T1 breast tumor cells [2]; 4 ng or 40 ng per mouse, four times over 21 days", "result": "highly significant"},
      {"measurement": "primary tumor burden vs PBS control, established tumors", "setting": "4T1 breast tumor cells [2]; 40 ng IV weekly for three weeks from day 14, trial 50 days, p<0.01", "result": "statistically significant benefit in primary tumor suppression; also recorded: highly significant"},
      {"measurement": "animals with complete remission, disease-free", "setting": "4T1 breast tumor cells [2]; 40 ng IV weekly x3 from day 14, at 50 days", "result": "1/10 and One of 10"},
      {"measurement": "mice with regression of tumor at the initial treatment", "setting": "4T1 breast tumor cells [2]; 40 ng IV, initial treatment on day 14", "result": "7/10"},
      {"measurement": "decrease of tumor burden on average at maximal effect", "setting": "4T1 breast tumor cells [2]; SC therapy begun on day 13, tumors about 5 mm in diameter", "result": 52, "unit": "%"},
      {"measurement": "breast tumor growth inhibitory effect on 4T1 tumors", "setting": "4T1 breast tumor cells [2]; highly-purified, SC, 0.4 ng to 40 ng per dose", "result": "dose-dependent"},
      {"measurement": "survival benefit vs weekly cyclophosphamide", "setting": "4T1 cells; Nani-P2 bolus treatment alternating with cyclophosphamide, p=0.0001", "result": "highly statistically significant"},
      {"measurement": "mice in partial remission", "setting": "4T1 cells; [4]", "result": "9/10"},
      {"measurement": "mice in total remission", "setting": "4T1 cells; [4]", "result": "3/10"},
      {"measurement": "tumor burden compared to control mice receiving PBS", "setting": "4T1 breast tumor cells [3]; 400 ng partially-purified derivative SC day 0, 7, 14, 21, apparent from day 15 (p<0.05)", "result": "significantly reduced tumor burden"},
      {"measurement": "decrease of tumor burden on average", "setting": "4T1 breast tumor cells [3]; SC therapy initiated on day 0 after tumor cell injection", "result": 53, "unit": "%"},
      {"measurement": "difference in primary tumor burden between Nani-P2 and Nani-P1-treated tumors", "setting": "4T1 breast tumor cells [3]; day 21 (final dosing), 400 ng SC, p<0.01", "result": 18, "unit": "mm^3"},
      {"measurement": "anti-tumor efficacy on increasing the dose", "setting": "4T1 breast tumor cells [3]; dose increased to 400 ng and 2 μg (data not shown)", "result": "no further anti-tumor efficacy"}
    ]}
  ]
}
